Values of other authors, collected in publication PMC6340931.
Read-outs that look alike come from different tables or passages of the source. Values belong to the substance of their own block, whether it stands above or below them.

Experiments:
[1] = target: Sortilin-derived propeptide (SDP) Gln1-Arg44 (Homo sapiens) (UniProt Q99523)
[2] = target: Sortilin-derived propeptide (SDP) Gln1-Arg44 (Homo sapiens) (UniProt Q99523); remark: listed apart in the source
[3] = target: Neurotensin (Homo sapiens) (UniProt P30990)

Kd [1]: 5 nM
Substance: Sortilin mature (from UniProt Q99523)

Kd [2]: 5 nM
Substance: TREK-1 (from UniProt O95069)

Kd [3]: 0.3 nM
Substance: Sortilin (from UniProt Q99523)
